Source: article PMC6751060 (mBio, 2019)

B3: RicA residues 1 to 122 (C-terminally truncated, for crystallography) (domain or fragment, B. subtilis, UniProt O31779 1-122, looked up)
chain: MTLYSKKDIVQQARNLAKMISETEEVDFFKRAEAQINENDKVSTIVNQIKALQKQAVNLKHYEKHEALKQVEAKIDALQEELEEIPVIQEFRDSQMEVNDLLQLVAHTISNQVTNEIITSTG
notes: also called truncated RicA; RicA (amino acids 1 to 122)

Experiments:
[1] = target: RicA of Bacillus anthracis (B. anthracis); test: AUC
[2] = target: T1, RicF (YlbF) of Bacillus subtilis (B. subtilis, UniProt O34412 1-149); test: pull-down; conditions: partners not purified
T1 construct: also called RicF^Bsu
T1 sequence (looked up): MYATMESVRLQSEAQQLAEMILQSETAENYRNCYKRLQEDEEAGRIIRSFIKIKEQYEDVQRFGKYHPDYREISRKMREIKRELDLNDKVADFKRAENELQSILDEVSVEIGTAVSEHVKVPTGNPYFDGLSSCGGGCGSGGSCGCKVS

[3] = target: the molecule itself; test: SEC; […]; 20 mM Tris-HCl pH 8.0, 150 mM NaCl, 1 mM DTT
crystal structure = target: the molecule itself; test: crystal structure
[4] = target: B3; test: crystal structure; RicAF crystals; hanging drop, 18% PEG 500 MME, 8% MPD, 100 mM sodium nitrate, 100 mM MOPS, sodium HEPES pH 7.3; conditions: both partners purified

## RicF of Bacillus anthracis (natural protein)
[1]
  stoichiometry N: 1

B1: RicA (YmcA) of Bacillus subtilis (natural protein, B. subtilis, UniProt O31779 1-143, looked up)
chain: MTLYSKKDIVQQARNLAKMISETEEVDFFKRAEAQINENDKVSTIVNQIKALQKQAVNLKHYEKHEALKQVEAKIDALQEELEEIPVIQEFRDSQMEVNDLLQLVAHTISNQVTNEIITSTGGDLLKGETGSKVKHSNNSCSL
notes: also called RicA^Bsu
[2]
  binding result: binds

B2: RicA (YmcA) of Bacillus subtilis, expressed alone and purified (natural protein, B. subtilis)
chain: MTLYSKKDIVQQARNLAKMISETEEVDFFKRAEAQINENDKVSTIVNQIKALQKQAVNLKHYEKHEALKQVEAKIDALQEELEEIPVIQEFRDSQMEVNDLLQLVAHTISNQVTNEIITSTGGDLLKGETGSKVKHSNNSCSL
notes: also called RicA dimer; GST-RicA
[3]
  stoichiometry N: 2

## B3
Crystal structure
  binding result: binds

B4: RicF residues 1 to 121 (C-terminally truncated, for crystallography) (domain or fragment, B. subtilis, UniProt O34412 1-121, looked up)
chain: MYATMESVRLQSEAQQLAEMILQSETAENYRNCYKRLQEDEEAGRIIRSFIKIKEQYEDVQRFGKYHPDYREISRKMREIKRELDLNDKVADFKRAENELQSILDEVSVEIGTAVSEHVKV
notes: also called truncated RicF
[4]
  binding result: binds
